Data published in patent US20250355002A1.

Molecular target: recombinant cryptic HDGFL2 with C-terminal glycine serine linker and 6-HisTag (human) (UniProt Q7Z4V5)
Experiment: MSD sandwich ELISA on HeLa overexpression lysates; mouse IgG isotype control in place of the capture antibody

UniProt Q7Z4V5, sequence (Q7Z4V5 other isoform, or with tags, fused parts or gaps limits assumed): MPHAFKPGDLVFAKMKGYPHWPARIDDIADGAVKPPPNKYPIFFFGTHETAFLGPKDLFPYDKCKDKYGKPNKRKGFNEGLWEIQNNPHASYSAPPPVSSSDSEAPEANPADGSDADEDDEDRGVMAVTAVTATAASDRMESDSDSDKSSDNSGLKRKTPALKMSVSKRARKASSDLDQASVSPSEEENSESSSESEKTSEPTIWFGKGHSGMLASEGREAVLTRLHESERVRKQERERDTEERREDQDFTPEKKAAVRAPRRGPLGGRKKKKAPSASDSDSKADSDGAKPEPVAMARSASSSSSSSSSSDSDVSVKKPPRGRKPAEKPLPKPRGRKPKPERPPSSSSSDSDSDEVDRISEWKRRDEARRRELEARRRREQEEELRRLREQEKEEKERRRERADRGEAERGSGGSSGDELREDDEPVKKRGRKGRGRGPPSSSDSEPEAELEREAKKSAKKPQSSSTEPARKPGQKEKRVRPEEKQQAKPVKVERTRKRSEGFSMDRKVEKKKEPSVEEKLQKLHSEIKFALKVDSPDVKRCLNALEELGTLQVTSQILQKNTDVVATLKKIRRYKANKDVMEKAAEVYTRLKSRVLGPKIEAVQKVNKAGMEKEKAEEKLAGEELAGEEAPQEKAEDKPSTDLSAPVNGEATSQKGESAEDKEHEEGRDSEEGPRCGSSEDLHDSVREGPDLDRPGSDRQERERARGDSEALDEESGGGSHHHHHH

mouse IgG isotype control (for the capture antibody)
ratio of cryptic/WT HDGFL2 lysate MSD signal: 1
